Where a SMILES comes first, the peptide text is derived from it. Bridges are numbered along the chain shown (N, C = ends). Where no end group is shown, it is not given here. The star is where a group is joined. Biotin = O=C1N[C@H]2[C@H](CS[C@H]2CCCCC(=O)*)N1; PEG4 = NCCOCCOCCOCCOCCC(=O)O
Tests used:
CTLA-4 [1] = molecular target: T1, CTLA-4 (Homo sapiens, UniProt P16410); test: Affinity measurement of synthetic biotinylated peptides by BLItz system (peptide on SA sensor chip); format: binding
T1 sequence (P16410 36-223): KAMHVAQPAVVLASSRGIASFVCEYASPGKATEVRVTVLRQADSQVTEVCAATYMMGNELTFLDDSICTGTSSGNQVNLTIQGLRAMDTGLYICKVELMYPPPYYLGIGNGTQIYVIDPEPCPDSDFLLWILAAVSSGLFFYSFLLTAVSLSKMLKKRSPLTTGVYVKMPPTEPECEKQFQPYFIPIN
Procedure: Affinity for CTLA-4 was measured using the BLItz system (forte Bio). All operations were performed according to the instruction manual of the BLItz system. The biotinylated peptides were immobilized on the SA sensor chip via streptavidin.

CTLA-4 [2] = molecular target: T2, CTLA-4 (Homo sapiens, UniProt P16410); test: Evaluation of binding after Affinity Maturation selection by ELISA (S/N ratio, Table 5)
T2 construct: IgG1 Fc (own knowledge: Orencia = abatacept, CTLA4-Ig)
Procedure: The basic operation of ribosome display was performed in the same manner as described above. Detailed experimental conditions for Affinity Maturation are indicated below. 2 μL of Nanolink streptavidin magnetic beads (SoluLink) were used as magnetic beads to immobilize the antigen, and 1 mL of CTLA-4 protein solution (1 μM) was used as a wash solution. The amount of biotinylated CTLA-4 immobilized on the magnetic beads was 10 pmol in the 1st round, 2 pmol in the 2nd round, and 1 pmol in the 3rd round, respectively. The washing period was 2 hours for the 1st round, 19 hours for the 2nd round, and 67 hours for the 3rd round. The number of wash cycle was one time (2 hours) in the 1st round, two times (about every 10 hours) in the […], and six times (about every 10 hours) in the 3rd round. After each round of RT-PCR, Error-Prone PCR was performed in the same manner as described above.
(§1) After each round of Affinity Maturation, the cyclic peptide genes were recovered and subcloned into pET-Mal vector (FIG. 2) in the same manner as described above to perform base sequence analysis. For the 94 single colonies analyzed for sequence, E. coli transformants were inoculated into 100 μL of 2×YT medium containing ampicillin (final concentration 50 μg/mL), incubated at 37° C. for 3-5 hours (OD600=0.5-0.8), then added with IPTG (final concentration 0.5 mM) and incubated at 25° C. overnight. 10 μL of E. coli cultured medium was added with 90 μL of PBS and 40 μL of lysis reagent (20 μL BugBuster Protein Extraction Reagent (Novagen), 20 μL Lysozyme solution 2.5 mg/mL) to lyse E. coli cells for 1 hour at room temperature. The cell lysate was added with 40 μL of 12.5% skim milk solution (TBST) and blocked for 1 hour at room temperature. In parallel, antigen protein was immobilized overnight at 4° C. in 384-well plates at 100 ng/20 μL per well, and each well was washed twice with 100 μL/well of TBST, added with 100 μL/well of 5% skim milk solution (TBST) for blocking for 1 hour at room temperature, and washed twice with 100 μL/well of TBST to obtain antigen-immobilized plates. 20 μL/well of blocking-treated E. coli extract was added to the antigen-immobilized plates and gently stirred at room temperature using a plate mixer. After 1 hour, the plates were washed 5 times with 100 μL/well of TBST, 20 μL/well of anti-FLAG M2-HRP conjugate (1:2000 dilution, Sigma) was added and gently stirred on a plate mixer for 1 hour at room temperature. The plates were washed 5 times with 100 μL/well of TBST, and binding of cyclic peptides to the antigen was detected by 20 μL/well of chromogenic substrate (0.4 mg/mL 3,3′,5,5′-Tetramethyl-benzidine, 0.01% hydrogen peroxide). After 15 minutes of reaction at room temperature, the reaction was stopped with 20 μL/well of 2N HCl, and absorbance at 450 nm was measured using a plate reader (infinite F200: TECAN) (Table 5).
T2 sequence (P16410 with tags, fused parts or gaps limits assumed): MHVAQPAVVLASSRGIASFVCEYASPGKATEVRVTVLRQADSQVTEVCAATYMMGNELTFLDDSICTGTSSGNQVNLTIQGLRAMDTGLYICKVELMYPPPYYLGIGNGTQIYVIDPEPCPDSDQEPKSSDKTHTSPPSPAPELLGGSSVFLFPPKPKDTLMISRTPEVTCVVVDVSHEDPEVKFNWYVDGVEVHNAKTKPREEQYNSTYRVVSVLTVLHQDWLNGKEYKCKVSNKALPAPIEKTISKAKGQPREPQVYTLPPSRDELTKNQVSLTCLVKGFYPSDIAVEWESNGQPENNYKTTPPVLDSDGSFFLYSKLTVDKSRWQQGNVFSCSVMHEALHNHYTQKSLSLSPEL

CTLA-4 [3] = molecular target: T1, CTLA-4; test: Affinity measurement of CTLA-4 binding clones after Affinity Maturation (EC50 by ELISA, Table 6)
Procedure: For each of the CTLA-4 binding clones obtained by Affinity Maturation, purified N-terminal MBP fusion protein solution (400 μg/mL) was prepared and samples serially 2-fold diluted with PBS were prepared. CTLA-4 was immobilized overnight at 4° C. in 384-well plates at 100 ng/20 μL per well, and each well was washed twice with 100 μL/well of TBST, added with 100 μL/well of 5% skim milk solution (TBST) for blocking for 1 hour at room temperature, and washed twice with 100 μL/well of TBST to obtain antigen-immobilized plates. 20 μL/well of serially-diluted N-terminal MBP fusion protein solution was added to the antigen-immobilized plates and gently stirred at room temperature using a plate mixer. After 1 hour, the plates were washed 5 times with 100 μL/well of TBST, 20 μL/well of anti-FLAG M2-HRP conjugate (1:2000 dilution, Sigma) was added and gently stirred on a plate mixer for 1 hour at room temperature. Further, the plates were washed 5 times with 100 μL/well of TBST, and binding of N-terminal MBP fusion proteins to the antigen was detected by 20 μL/well of chromogenic substrate (0.4 mg/mL 3,3′,5,5′-Tetramethyl-benzidine, 0.01% hydrogen peroxide). After 15 minutes of reaction at room temperature, the reaction was stopped with 20 μL/well of 2N HCl, and absorbance at 450 nm was measured using a plate reader (infinite F200: TECAN). The graph was plotted with the vertical axis as the absorbance of ELISA and the horizontal axis as the concentration of N-terminal MBP fusion protein of the CTLA4-binding clones (FIG. 5), and the EC50 was calculated from the obtained binding curve (Table 6).

SA = SA (Streptomyces avidinii, UniProt P22629); test: ELISA background signal of MBP-fused cyclic peptides on SA wells (Table 5); format: binding; details: MBP-fused cyclic peptide
Procedure: as §1
An Error-Prone Library was prepared based on H12SSI-Ctla4-3-02, and Affinity Maturation selection experiments were performed. […]

CTLA-4 [4] = molecular target: T1, CTLA-4; test: ELISA binding of clones after Affinity Maturation with random library (Tables 10, 11); details: CTLA-4 binding ELISA of clones after Affinity Maturation from random (NNS) library; signal/noise ratio; clones of 4th or 5th round
Procedure: as §1
Oligo DNAs of a library were synthesized (see below), in which amino acid residues (positions 1, 4, 8, 10, +1 and +2) (corresponding to X1, […], X8, X10, X+1 and X+2) other than those essential or advantageous for CTLA-4 binding (2H, 3P, 5L, 6P, 7I, 9S, 11H, 12F) identified by alanine scanning were randomized (NNS).
Affinity Maturation was performed in the same manner as described above. The amount of biotinylated CTLA-4 immobilized on the magnetic beads was 10 pmol in the 1st round, 2 pmol in the 2nd round, and 1 pmol in the 3nd-5th rounds, respectively. The washing period was 2 hours for the 1st round, 19 hours for the 2nd round, 67 hours for the 3nd round, 140 hours for the 4th round, and 340 hours for the 5th round. Washing frequency was 1 time (2 hours) in the 1st round, 2 times (every 10 hours) in the 2nd round, 6 times (every 10 hours) in the 3rd round, 14 times (every 10 hours) in the 4th round, and 36 times (every 10 hours) in the 5th round.

| ELISA S/N(SA) (CTLA-4 [4]) | Compound | further results |
| --- | --- | --- |
| 6.1 | C4m#19-5th2w-NNS6-46 (GGCFHPFLPIFSYHFCGL; C4m#19-5th2w-NNS6-46) | – |
| 21.2 | C4m#19-5th4w-NN6-90 (GGCRHPWLPIVSYHFCSS; C4m#19-5th4w-NN6-90) | – |
| 7.7 | C4m#19-5th2w-NNS6-86 (GGCFHPYLPIWSLHFCRS; C4m#19-5th2w-NNS6-86) | – |
| 17.2 | C4m#19-5th4w-NN6-62 (GGCQHPYLPIWSFHFCPF; C4m#19-5th4w-NN6-62) | – |
| 28.3 | C4m#19-5th4w-NN6-82 (GGCFHPFLPIRSLHFCCR; C4m#19-5th4w-NN6-82) | – |
| 27.2 | C4m#19-5th4w-NN6-32 (GGCPHPFLPIWSVHFCPF; C4m#19-5th4w-NN6-32) | – |
| 6.3 | C4m#19-5th2w-NNS6-4 (GGCFHPWLPISSLHFCPF; C4m#19-5th2w-NNS6-4) | – |
| 37.5 | C4m#19-5th4w-NN6-21 (GGCWHPWLPILSPHFCPR; C4m#19-5th4w-NN6-21) | – |
| 14.7 | C4m#19-5th4w-NN6-5-1 (GGCWHPYLPIQSLHFCPF; C4m#19-5th4w-NN6-5-1) | – |
| 5.9 | C4m3127-4th-NNS6-94 (GGCRHPVLPIWSSHFCPW; C4m3127-4th-NNS6-94) [Clone C4m3127-4th-NNS6-94] | – |

More lines, now with the values behind:

| Compound | ELISA S/N(SA) (CTLA-4 [4]) | further results |
| --- | --- | --- |
| CSCC[C@@H]1NC(=O)[C@@H](NC(=O)[C@H](CCCCN)NC(=O)CCOCCOCCOCCOCCNC(=O)CCCC[C@@H]2SC[C@@H]3NC(=O)N[C@@H]32)CSSC[C@@H](C(=O)O)NC(=O)[C@H](Cc2ccccc2)NC(=O)[C@H](Cc2c[nH]cn2)NC(=O)[C@H](Cc2c[nH]cn2)NC(=O)[C@H](CO)NC(=O)[C@H](C(C)C)NC(=O)[C@H](C(C)C)NC(=O)[C@H](CC(C)C)NC(=O)[C@H](CC(C)C)NC(=O)[C@H](Cc2ccccc2)NC(=O)[C@@H]2CCCN2C(=O)[C@H](Cc2c[nH]cn2)NC1=O [biotinylated H12SSI-Ctla4-3-02] ({Biotin-PEG4}-KCMHPFLLVVSHHFC-OH; disulfide 2-15; C-terminus assumed) | – | kon (CTLA-4 [1]; read-out: ka): 115000 M⁻¹ s⁻¹; kd (CTLA-4 [1]; synthetic Biotin-PEG4-Lys peptide immobilized, BLItz): 0.022 s⁻¹ |
| CLHPFLPIVSHHFCGR (cysteine pairing not given here; also: MBP fusion) [#10] | – | ELISA MBP-fusion Orencia (absorbance at 450 nm) (CTLA-4 [2]; MBP-fused cyclic peptide, Orencia wells, absorbance at 450 nm): 1.1444; ELISA MBP-fusion S/N(SA) (CTLA-4 [2]; ratio of Orencia signal to SA signal, binding = S/N not less than 2): 18.5; CTLA-4 affinity improved over the original clone (CTLA-4 [3]; EC50 by ELISA, MBP fusion cyclic peptides): about 50 fold; EC50 (CTLA-4 [3]; N-terminal MBP fusion protein of the CTLA-4 binding clone, EC50 calculated from ELISA binding curve): 0.082 µM; ELISA MBP-fusion SA (absorbance at 450 nm) (SA): 0.0617 |
| C4m#19-5th4w-NN6-50 (GGCKHPVLPIWSWHFCRI; C4m#19-5th4w-NN6-50) | 28.1 | – |
| C4m3127-4th-NNS6-83 (GGCRHPFLPIFSKHFCEL; C4m3127-4th-NNS6-83) [Clone C4m3127-4th-NNS6-83] | 20.7 | – |
| C4m#19-5th2w-NNS6-26 (GGCLHPFLPIVSIHFCSA; C4m#19-5th2w-NNS6-26) | 5.8 | – |
| C4m#19-5th4w-NN6-72 (GGCWHPWLPIVSVHFCGC; C4m#19-5th4w-NN6-72) | 4.6 | – |
| C4m#19-5th4w-NN6-52 (GGCLHPFLPIRSVHFCGC; C4m#19-5th4w-NN6-52) | 28.6 | – |
| C4m#19-5th4w-NN6-74 (GGCFHPFLPIYSWHFCAR; C4m#19-5th4w-NN6-74) | 15.1 | – |
| C4m#19-5th4w-NN6-40 (GGCFHPFLPIRSHHFCML; C4m#19-5th4w-NN6-40) | 4.0 | – |
| C4m#19-6th4w-NN6-5-3 (GGCWHPFLPILSLHFCGW; left off: large carriers; small tags and cut ends) | 14.7 | – |
| C4m#19-5th4w-NN6-85 (GGCWHPFLPIFSVHFCGC; C4m#19-5th4w-NN6-85) | 22.9 | – |
| C4m#19-5th2w-NNS6-34 (GGCCHPFLPIYSVHFCAS; C4m#19-5th2w-NNS6-34) | 5.0 | – |
| C4m3127-4th-NNS6-66 (GGCAHPHLPIRSVHFCSF; C4m3127-4th-NNS6-66) [Clone C4m3127-4th-NNS6-66] | 4.8 | – |
| C4m#19-5th4w-NN6-69-3 (GGCLHPWLPIVSVHFCAR; C4m#19-5th4w-NN6-69-3) | 24.9 | – |

Source: patent publication US12565517B2, “Cyclic peptide having CTLA-4 inhibitory activity and use thereof” (GeneFrontier Corporation, priority 2019, dated 2026)
